US20140221620A1 (PERSEUS PROTEOMICS, published 2014)

Experiments:
Test in all cases: Western blot, E. coli lysate, reducing gel
[1] = target: T1, CDH3 protein Fragment 5 (positions 462 to 654 of SEQ ID NO: 38) (human, UniProt P22223 462-654)
T1 construct: Expressed in E. coli Rosetta 2; the lysate was run on a reducing gel and blotted; not shown: N-terminal fusion part supplied by the vector pCold TF (His tag, trigger factor, linker to the KpnI site)
Experimental: (§1) The above-described Escherichia coli lysate, in which each of the above-mentioned CDH3 protein fragments had been expressed, was charged to 5%-20% gradient gel (Bio-Rad) under reductive conditions, followed by performing electrophoresis. Thereafter, using a blotting device (Bio-Rad), the resultant was transferred on Immobilon P membrane (Millipore). The transfer membrane was lightly washed with TBS-T (0.05% Tween 20, TBS), and it was then shaken in […] BSA-containing TBS for 1 hour. […] The obtained mixture was shaken for 1 hour. Thereafter, the reaction product was washed with TBS-T, and a HRP-anti-mouse IgG antibody (GE Healthcare Biosciences) diluted with 10% Block Ace-containing TBS-T was added thereto, followed by shaking the obtained mixture for 1 hour. Subsequently, the reaction product was washed with TBS-T. Using ECL-Plus (GE Healthcare Biosciences), color development was detected with X-ray film RX-u (Fujifilm Corporation) in accordance with the instructions provided by the manufacturer.

[2] = target: T2, CDH3 protein Fragment 2 (positions 132 to 348 of SEQ ID NO: 38) (human, UniProt P22223 132-348)
T2 construct: Expressed in E. coli Rosetta 2; the lysate was run on a reducing gel and blotted; not shown: N-terminal fusion part supplied by the vector pCold TF (His tag, trigger factor, linker to the KpnI site)
T2 sequence (P22223 132-348 limits assumed): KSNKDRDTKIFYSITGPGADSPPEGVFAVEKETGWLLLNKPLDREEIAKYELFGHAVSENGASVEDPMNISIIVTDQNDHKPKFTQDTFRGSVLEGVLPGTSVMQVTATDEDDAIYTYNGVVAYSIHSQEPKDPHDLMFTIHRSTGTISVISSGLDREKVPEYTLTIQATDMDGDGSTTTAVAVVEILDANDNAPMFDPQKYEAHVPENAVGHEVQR
Experimental: as §1

[3] = target: T3, CDH3 protein Fragment 3 (positions 237 to 461 of SEQ ID NO: 38) (human, UniProt P22223 237-461)
T3 construct: Expressed in E. coli Rosetta 2; the lysate was run on a reducing gel and blotted; not shown: N-terminal fusion part supplied by the vector pCold TF (His tag, trigger factor, linker to the KpnI site)
T3 sequence (P22223 237-461 limits assumed): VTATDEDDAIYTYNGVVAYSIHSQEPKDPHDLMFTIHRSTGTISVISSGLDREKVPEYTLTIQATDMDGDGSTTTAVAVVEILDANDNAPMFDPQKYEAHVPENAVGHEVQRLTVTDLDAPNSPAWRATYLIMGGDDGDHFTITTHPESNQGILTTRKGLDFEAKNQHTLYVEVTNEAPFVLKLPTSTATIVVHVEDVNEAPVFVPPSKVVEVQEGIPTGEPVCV
Experimental: as §1

[4] = target: T4, CDH3 protein Fragment 4 (positions 349 to 550 of SEQ ID NO: 38) (human, UniProt P22223 349-550)
T4 construct: Expressed in E. coli Rosetta 2; the lysate was run on a reducing gel and blotted; not shown: N-terminal fusion part supplied by the vector pCold TF (His tag, trigger factor, linker to the KpnI site)
T4 sequence (P22223 349-550 limits assumed): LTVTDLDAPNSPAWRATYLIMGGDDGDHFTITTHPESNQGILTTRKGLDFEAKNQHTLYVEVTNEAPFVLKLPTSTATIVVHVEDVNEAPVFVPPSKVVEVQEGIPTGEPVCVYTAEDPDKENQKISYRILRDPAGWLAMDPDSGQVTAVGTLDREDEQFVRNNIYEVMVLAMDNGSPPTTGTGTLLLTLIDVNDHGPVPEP
Experimental: as §1

Measured: binding result

T1 sequence (P22223 462-654 limits assumed): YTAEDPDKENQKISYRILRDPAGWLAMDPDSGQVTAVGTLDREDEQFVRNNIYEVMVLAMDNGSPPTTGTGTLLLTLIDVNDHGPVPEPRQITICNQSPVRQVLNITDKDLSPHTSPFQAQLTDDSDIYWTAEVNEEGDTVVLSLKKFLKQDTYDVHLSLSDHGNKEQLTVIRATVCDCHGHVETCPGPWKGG

B1: mouse antibody PPAT-057-17 (antibody, V domains shown)
VH: QVKLEESGPVLVAPSQSLSITCTVSGFSLTSYGVHWIRHPPGKGLEWLGVIWAGGNTIYNSALMSRLNISKDNSKSQVFLKMNSLQSDDSAMYYCAKPHYGDYAGFYALDHWGQGTSVTVSS
VL: DVQITQSPSYLAASPGETININCRASKRISKYLAWYQEKPGKTNRLLIYSGSTLQSGIPSRFSGSGSGTDFTLTISSLEPEDFAMYYCQQHNEYPWTFGGGTKLEIK
notes: Mouse monoclonal IgG from a hybridoma; kappa L chain primers were used
no binding: all assays above
